B1: CAR D0086 (Ef1a-BCMA sequence 37 CD8 BBz) (other)
chain: EVQLVESGGGLVKPGGSLRLSCAASGFTFSSYGMHWVRQAPGKGLEWVAFIRYDGSNKYYADSVKGRFTISRDNSKNTLYLQMNSLRAEDTAVYYCAKDWEYSGYDAHPGWGQGTLVTVSSGGGGSGGGGSGGGGSDIQLTQSPSSLSASVGDRVTITCRASQGISSALAWYQQKPGKAPKLLIYDASSLESGVPSRFSGSGSGTEFTLTISSLQPEDFATYFCQQTYSPPITFGQGTRLEIKRAAATTTPAPRPPTPAPTIASQPLSLRPEACRPAAGGAVHTRGLDFACDIYIWAPLAGTCGVLLLSLVITLYCKRGRKKLLYIFKQPFMRPVQTTQEEDGCSCRFPEEEEGGCELRVKFSRSADAPAYQQGQNQLYNELNLGRREEYDVLDKRRGRDPEMGGKPRRKNPQEGLYNELQKDKMAEAYSEIGMKGERRRGKGHDGLYQGLSTATKDTYDALHMQALPPR
B2: CAR D0100 (Ef1a-BCMA sequence 4-45 CD8 BBz) (other)
chain: EVQLVQSGAEVKKPGASVKVSCKASGYTSTSYYMHWVRQAPGQGLEWMGIINPSGGSTSYAQKFQGRVTMTRDTSTSTVYMELSSLRSEDTAVYYCARDLGDGAFDIWGQGTMVTVSSGGGGSGGGGSGGGGSDIQMTQSLSSLSASVGDRVTIACRASQTISRYLNWYQQKPGKAPKLLIYAASSLQSGVSSRFSGSGSGTEFTLTISSLQPEDFATYFCQQTYSPPITFGQGTRLEIKRAAATTTPAPRPPTPAPTIASQPLSLRPEACRPAAGGAVHTRGLDFACDIYIWAPLAGTCGVLLLSLVITLYCKRGRKKLLYIFKQPFMRPVQTTQEEDGCSCRFPEEEEGGCELRVKFSRSADAPAYQQGQNQLYNELNLGRREEYDVLDKRRGRDPEMGGKPRRKNPQEGLYNELQKDKMAEAYSEIGMKGERRRGKGHDGLYQGLSTATKDTYDALHMQALPPR
B3: BCMA CAR construct with ScFv sequence 39 (MTB-39) (other, not shown: large carriers)
chain: EVQLVESGGGVVQPGGSLRLSCAASGFTFSGYGMHWVRQAPGKGLEWVAFIRYDGSNKYYADSVKGRFTISRDNSKNTLYLQMNSLRAEDTAVYYCARDGARNDYWGQGTLVTVSSGGGGSGGGGSGGGGSNFMLTQPHSVSESPGKTVTISCTRSSGSIASNYVQWYQQRPGSAPTTVIYEDNQRPSGVPDRFSGSIDSSSNSASLTISGLKTEDEADYYCQTYDDNNHVIFGGGTQLTVLG
B4: BCMA CAR construct with ScFv sequence 2 (MTB-2) (other, not shown: large carriers)
chain: EVQLVQSGGGLVQPGGSLRLSCAASGFTFSSYWMSWVRQAPGKGLEWVSGINGSGDRTYYADSVKGRFTISRDNSKNTLYLQMNSLRAEDTAVYYCANYNYDDNSGYGLGQGTLVTVSSGGGGSGGGGSGGGGSQSVLTQPPSVSVAPGKTARITCGGNNIGSKSVHWYQQKPGQAPVLVIYDDSDRPSGIPERFSGSNSGNTATLTISRVEAGDEADYYCQVWDSSSDHWVFGGGTKVTVLG
B5: CAR D0085 (Ef1a-BCMA sequence 16 CD8 BBz) (other)
chain: EVQLVQSGGGVVQPGGSLRLSCAASGFTFSSYGMHWVRQAPGKGLEWVAFIRYDGSNKYYADSVKGRFTISRDNSKNTLYLQMNSLRAEDTAVYYCARDLNDYGDPPPYWGQGTLVTVSSGGGGSGGGGSGGGGSDIQMTQSPSSLSASVGDRVTITCRASQSISSYLNWYQQKPGKAPKLLIYDASNLETGVSSRFSGSGSGTEFTLTISSLQPEDFATYFCQQTYSPPITFGQGTRLEIKRAAATTTPAPRPPTPAPTIASQPLSLRPEACRPAAGGAVHTRGLDFACDIYIWAPLAGTCGVLLLSLVITLYCKRGRKKLLYIFKQPFMRPVQTTQEEDGCSCRFPEEEEGGCELRVKFSRSADAPAYQQGQNQLYNELNLGRREEYDVLDKRRGRDPEMGGKPRRKNPQEGLYNELQKDKMAEAYSEIGMKGERRRGKGHDGLYQGLSTATKDTYDALHMQALPPR
B6: BCMA CAR construct with ScFv sequence 50 (MTB-50) (other, not shown: large carriers)
chain: EVQLVQSGGGVVRPGGSLRLSCAASGFTFSTYEMNWVRQAPGKGLEWLAYIGGSGSPIYYADSVRGRFTISRDNTKNSLFLQMSSLRAEDTAVYYCVEGWFDKWGLGTLVTVSSGGGGSGGGGSGGGGSDIQLTQSPSTLSASVGDRVTITCRASQSISSYLNWYQQKPGKAPKLLIYDASNLETGVPSRFSGSGSGTDFTLTISSLQPEDFATYYCQQSYSTPYTFGQGTKLEIKR
B7: BCMA CAR construct with ScFv sequence 49 (MTB-49) (other, not shown: large carriers)
chain: EVQLVESGGGVVQPGRSLRLSCAASGFTFSSYGMHWVRQAPGKGLEWVAFIRYDGSNKYYADSVKGRFTISRDNSKNTLYLQMNSLRAEDTAVYYCVSDDYGGNSGTSYWGQGTLVTVSSGGGGSGGGGSGGGGSDIQMTQSPSSLSASVGDRVTITCQASQDISNYLNWYQQKPGKAPKLLIYDASNLETGVPSRFSGSGSGTDFTLTISSLQPEDFATYYCQQSYSTPVTFGGGTKLTVLG
B8: BCMA CAR construct with ScFv sequence 14 (MTB-14) (other, not shown: large carriers)
chain: EVQLVESGGGVVQPGRSLRLSCAASGFTFSSYGMHWVRQAPGKGLEWVAFIRYDGSNKYYADSVKGRFTISRDNSKNTLYLQMNSLRAEDTAVYYCVSDDYGGNSGTSYWGQGTLVTVSSGGGGSGGGGSGGGGSDIQMTQSPSSLSASVGDRVTITCQASQDISNYLNWYQQKPGKAPKLLIYDASNLETGVPSRFSGSGSGTDFTLTISSLQPEDFATYYCQQSYSTPVTFGGGTKLTVLG
B9: CAR D0099 (Ef1a-BCMA sequence 4-12 CD8 BBz) (other)
chain: QVQLVQSGGGVVQPGGSLRLSCAASGFTFSSYVIHWVRQAPGKGLEWVAAISHDGSNKYYADSVKGRFTISRDNSKNTLYLQMSSLSAEDTAMYYCVKTSSDYYYAYWGQGTLVTVSSGGGGSGGGGSGGGGSQTVVTQEPSFSVSPGGTVTLTCGLSSGSVSTGNSPTWYQQTPGQAPRTLIYSTNTRSSGVPDRFSGSILGNKAALTITGAQADDESDYYCVLYMGSGYWVFGGGTKVTVLGAAATTTPAPRPPTPAPTIASQPLSLRPEACRPAAGGAVHTRGLDFACDIYIWAPLAGTCGVLLLSLVITLYCKRGRKKLLYIFKQPFMRPVQTTQEEDGCSCRFPEEEEGGCELRVKFSRSADAPAYQQGQNQLYNELNLGRREEYDVLDKRRGRDPEMGGKPRRKNPQEGLYNELQKDKMAEAYSEIGMKGERRRGKGHDGLYQGLSTATKDTYDALHMQALPPR
B10: CAR D0087 (Ef1a-BCMA sequence 40 CD8 BBz) (other)
chain: EVQLVQSGGGVVQPGGSLRLSCAASGFTFSSYGMHWVRQAPGKGLEWVAFIRYDGSNKYYADSVKGRFTISRDNSKNTLYLQMNSLRAEDTAVYYCAKEPPEYYYDSSGYSWGQGTLVTVSSGGGGSGGGGSGGGGSDIQLTQSPSSLSASVGDRVTITCQASQDIDTYLNWYQQKPGKAPKLLIYAASSLQSGVSSRFSGSGSGTEFTLTISSLQPEDFATYFCQQTYSPPITFGQGTRLEIKRAAATTTPAPRPPTPAPTIASQPLSLRPEACRPAAGGAVHTRGLDFACDIYIWAPLAGTCGVLLLSLVITLYCKRGRKKLLYIFKQPFMRPVQTTQEEDGCSCRFPEEEEGGCELRVKFSRSADAPAYQQGQNQLYNELNLGRREEYDVLDKRRGRDPEMGGKPRRKNPQEGLYNELQKDKMAEAYSEIGMKGERRRGKGHDGLYQGLSTATKDTYDALHMQALPPR
B11: BCMA CAR construct with ScFv sequence 3 (MTB-3) (other, not shown: large carriers)
chain: EVQLVESGGGVVQPGGSLRLSCAASGFTFSSYGMHWVRQAPGKGLEWVAFIRYDGSNKYYADSVKGRFTISRDNSKNTLYLQMNSLRAEDTAVYYCAKDDYGGNSEGDYWGQGTLVTVSSGGGGSGGGGSGGGGSEIVLTQSPATLSVSLGERATLSCRASQSVSNSLAWYQQKPGQAPRLLIYDASTRATGIPARFSGSGSGTEFTLTISSLQPEDFATYFCQQTYSPPITFGQGTRLEIKR
B12: BCMA CAR construct with ScFv sequence 28 (MTB-28) (other, not shown: large carriers)
chain: QVQLVESGGGVVQPGGSLRLSCAASGFTFSSYGMHWVRQAPGKGLEWVAFIRYDGSNKYYADSVKGRFTISRDNSKNTLYLQMNSLRAEDTAVYYCARDSYSSSGDPRAFDPWGQGTLVTVSSGGGGSGGGGSGGGGSNFMLTQPHSVSESPGKTVTISCTGSSGSIASNYVQWYQQRPGSAPSTVIFEDNQRPSGVPGRFSGSVDRSSNSASLTISGLKTEDEADYYCQSYDSNNRGLFGGGTKVTVLG
B13: CAR D0153 (BCMA 4-1c CD8 BBz) (other)
chain: EVQLVETGGGVVQPGGSLRLSCAASGFTFSSYGMHWVRQAPGKGLEWVAFIRYDGSNKYYADSVKGRFTISRDNSKNTLYLQMNSLRAEDTAVYYCAKDWDTYYYDSSGYDRAWGQGTLVTVSSGGGGSGGGGSGGGGSDIQMTQSPSSLSASVGDRVTITCQASQDINNYLNWYQQKPGKAPKLLIYAASSLQSGVSSRFSGSGSGTEFTLTISSLQPEDFATYFCQQTYSPPITFGQGTRLEIKRAAATTTPAPRPPTPAPTIASQPLSLRPEACRPAAGGAVHTRGLDFACDIYIWAPLAGTCGVLLLSLVITLYCKRGRKKLLYIFKQPFMRPVQTTQEEDGCSCRFPEEEEGGCELRVKFSRSADAPAYQQGQNQLYNELNLGRREEYDVLDKRRGRDPEMGGKPRRKNPQEGLYNELQKDKMAEAYSEIGMKGERRRGKGHDGLYQGLSTATKDTYDALHMQALPPR
notes: Chimeric antigen receptor on transduced human primary T cells; also called D153; CAR D153

target: T1, BCMA on BCMA-positive multiple myeloma tumor lines RPMI-8226 and MM1.S (human, UniProt Q02223 1-184); assay: cell-based or functional assay
T1 sequence (looked up): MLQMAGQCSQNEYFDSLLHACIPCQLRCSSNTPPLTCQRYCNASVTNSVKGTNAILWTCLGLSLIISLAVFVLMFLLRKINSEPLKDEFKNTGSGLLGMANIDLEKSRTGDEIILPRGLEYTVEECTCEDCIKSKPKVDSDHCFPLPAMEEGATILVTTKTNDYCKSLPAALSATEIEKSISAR

Question: For B1, which “tumor lysis of RPMI-8226-luc, luciferase-based killing assay, E:T 5” value (shortened to “tumor lysis of RPMI-8226-luc”) is on record?
Answer: Its value is greater than 40%.

Question: Which “tumor lysis of RPMI-8226-luc” value does the source give for B2 here?
Answer: Its value is greater than 40%.

Question: B3 was tested. Which “tumor lysis of RPMI-8226-luc” value did it give?
Answer: The value was greater than 40%.

Question: How did the “tumor lysis of RPMI-8226-luc” value turn out when B4 was run?
Answer: Its value is no more than 40%.

Question: Which “tumor lysis of RPMI-8226-luc” value does the source give for B5 here?
Answer: Its value is greater than 40%.

Question: B6 was tested. Which “tumor lysis of RPMI-8226-luc” value did it give?
Answer: Its value is greater than 40%.

Question: Which “tumor lysis of RPMI-8226-luc” value does the source give for B7 here?
Answer: The value was greater than 40%.

Question: How did the “tumor lysis of RPMI-8226-luc” value turn out when B8 was run?
Answer: Its value is greater than 40%.

Question: Which “tumor lysis of RPMI-8226-luc” value does the source give for B9 here?
Answer: Its value is greater than 40%.

Question: B10 was tested. Which “tumor lysis of RPMI-8226-luc” value did it give?
Answer: Its value is greater than 40%.

Question: Which “tumor lysis of RPMI-8226-luc” value does the source give for B11 here?
Answer: The value was greater than 40%.

Question: For B12, which “tumor lysis of RPMI-8226-luc” value is on record?
Answer: The value was greater than 40%.

target: T2, recombinant human BCMA (ectodomain)-Fc (human, UniProt Q02223 1-54); assay: flow cytometry of transduced T cells; staining with recombinant human BCMA Fc chimera then anti-Fc-Alexa Fluor 647 (method in paragraph 320)
T2 construct: extracellular domain; also called BCMA-Fc; BCMA-Fc peptide; not shown: Fc part
T2 sequence (looked up): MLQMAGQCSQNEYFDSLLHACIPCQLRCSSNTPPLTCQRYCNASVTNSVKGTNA
Procedure: To assess the cell surface expression of BCMA CARs, 0.5-1e6 CAR T-cells were resuspended in FACs buffer (Miltenyi Biotec's autoMACS Rinsing Solution+MACS BSA Stock Solution) and incubated with 0.5 ug of recombinant human BCMA Fc Chimera Protein (RNDsystems) for 20 mins at 4° C. Cells were washed twice and re-suspended in FACs buffer and incubated for 20 mins at 4° C. with anti-Fc-Alexa Fluor 647 at 1:200 dilution. Cells were again washed twice and resuspended in FACs buffer and incubated for 20 mins at 4° C. with anti-CD4-Vioblue or anti-CD8-Viogreen (Miltenyi Biotec) at 1:50 dilution and 7AAD at 1:20 dilution. Cells were subsequently washed and analyzed using the MACSQuant® Analyzer 10 flow cytometer (Miltenyi Biotec).

Question: Does B13 bind?
Answer: Result: binds

Source: patent US20260015403A1 (LENTIGEN TECHNOLOGY, published 2026)
